B1: Fab fragment of antibody 15532 (Fab, V domains shown, not shown: a dimerising Fc or GST)
VH: QVQLQQWGAGLLRPSETLSLTCAVYGESFSGYYWNWIRQPPGKGLEWIGEINHSGSTNYNPSLKSRVTISVDTSKTQFSLKLSSVTAADTAVYYCARGWDLLDWNDYWNEYWGQGTLVTVSS
VL: EIVLTQSPATLSLSPGERATLSCRASQSVSSYLAWYQQKPGQAPRLLIYDASNRATGIPARFSGSGSGTDFTLTISSLEPEDFAVYYCQQRSNWPLTFGGGTKVEIKR
notes: monomeric Fab made by GingisKHAN digestion of the IgG1
B2: Fab fragment of antibody 15431 (Fab, V domains shown, not shown: a dimerising Fc or GST)
VH: QVQLQQSGPGLVKPSQTLSLTCAISGDSVSSNSAAWNWIRQSPSRGLEWLGRTYYRSKWYNDYAVSVKSRITINPDTSKNQFSLQLNSVTPEDTAVYYCARDDDWNDFDYWGQGTLVTVSS
VL: EIVLTQSPATLSLSPGERATLSCRASQSVSSYLAWYQQKPGQAPRLLIYDASNRATGIPARFSGSGSGTDFTLTISSLEPEDFAVYYCQQRSNWPLTFGGGTKVEIKR
notes: as for B1
B3: Fab fragment of antibody 15011 (Fab, V domains shown, not shown: a dimerising Fc or GST)
VH: EVQLLESGGGLVQPGGSLRLSCAASGFDFRSYAMMWVRQAPGKGLEWVGGINGEVGGSNTYYAPAVKGRATISRDNSKNTLYLQMNSLRAEDTAVYYCVKGAGACGICNDDIDAWGQGTLVTVSS
VL: SYELTQDPAVSVALGQTVRITCSGAGSYAGSYYYGWHQQKPGQAPVTVIYDNDKRPSNIPDRFSGSSSGNTASLTITGAQAEDEADYYCGSTNDNDDGGLFGSGTKVTVLG
notes: as for B1
B4: Fab fragment of antibody 15572 (Fab, V domains shown, not shown: a dimerising Fc or GST)
VH: QLQLQESGPGLVKPSETLSLTCTVSGDSISSSSYYWGWIRQPPGKGLEWIGSIFYSGNTYYNPSLKSRVTISVDTSKNQFSLKLSSVTAADTAVYYCAREDDFLTDYYGAFDIWGQGTMVTVSS
VL: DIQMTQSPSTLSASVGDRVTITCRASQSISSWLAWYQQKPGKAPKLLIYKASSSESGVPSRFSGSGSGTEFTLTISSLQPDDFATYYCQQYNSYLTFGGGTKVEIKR
notes: as for B1

How the values were obtained:
Experiment in all cases: SPR, Fab over captured mutant LAG-3-Fc;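 also: fc fusion variants captured on anti-human IgG Fc sensor, Fab injected with association then dissociation phases, KD obtained from Langmuir one-to-one fit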
[1] = biological target: T1, human LAG-3 domain 1-2 Fc fusion, point mutation #73 R137A (human, UniProt P18627 23-266)
T1 construct: not shown: human IgG1 Fc, AA P101-K330
T1 sequence: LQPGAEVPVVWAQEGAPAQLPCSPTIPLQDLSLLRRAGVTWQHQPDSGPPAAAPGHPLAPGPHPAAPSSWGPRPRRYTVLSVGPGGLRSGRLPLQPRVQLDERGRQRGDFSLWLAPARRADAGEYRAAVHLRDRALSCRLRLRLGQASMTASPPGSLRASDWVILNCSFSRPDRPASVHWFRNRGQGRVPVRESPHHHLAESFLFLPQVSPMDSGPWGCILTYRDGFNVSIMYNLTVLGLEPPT

[2] = biological target: T2, human LAG-3 domain 1-2 Fc fusion, point mutation #1 A40S (human, UniProt P18627 23-266)
T2 construct: not shown: human IgG1 Fc, AA P101-K330
T2 sequence: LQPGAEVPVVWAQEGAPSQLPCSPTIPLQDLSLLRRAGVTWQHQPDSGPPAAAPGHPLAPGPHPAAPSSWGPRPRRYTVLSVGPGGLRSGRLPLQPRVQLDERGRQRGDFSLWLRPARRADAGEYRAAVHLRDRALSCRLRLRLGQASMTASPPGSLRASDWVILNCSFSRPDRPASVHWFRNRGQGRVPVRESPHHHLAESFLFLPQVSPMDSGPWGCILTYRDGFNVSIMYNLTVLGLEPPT

[3] = biological target: T3, human LAG-3 domain 1-2 Fc fusion, point mutation #12 R57A (human, UniProt P18627 23-266)
T3 construct: not shown: human IgG1 Fc, AA P101-K330
T3 sequence: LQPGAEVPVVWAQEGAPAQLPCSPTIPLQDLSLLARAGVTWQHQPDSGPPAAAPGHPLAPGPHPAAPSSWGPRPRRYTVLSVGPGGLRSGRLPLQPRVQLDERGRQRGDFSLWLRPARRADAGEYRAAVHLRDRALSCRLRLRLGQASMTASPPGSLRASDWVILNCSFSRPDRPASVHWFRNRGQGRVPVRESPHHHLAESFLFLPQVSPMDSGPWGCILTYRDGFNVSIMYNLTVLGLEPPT

[4] = biological target: T4, human LAG-3 domain 1-2 Fc fusion, point mutation #40 G93A (human, UniProt P18627 23-266)
T4 construct: not shown: human IgG1 Fc, AA P101-K330
T4 sequence: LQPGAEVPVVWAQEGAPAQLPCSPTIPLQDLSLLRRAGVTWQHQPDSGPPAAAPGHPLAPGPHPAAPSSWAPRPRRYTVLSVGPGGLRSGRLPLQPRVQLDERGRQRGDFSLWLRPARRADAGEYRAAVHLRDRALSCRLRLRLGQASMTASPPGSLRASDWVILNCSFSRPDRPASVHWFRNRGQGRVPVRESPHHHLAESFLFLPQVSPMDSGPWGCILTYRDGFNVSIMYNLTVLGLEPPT

[5] = biological target: T5, human LAG-3 domain 1-2 Fc fusion, point mutation #24 G77A (human, UniProt P18627 23-266)
T5 construct: not shown: human IgG1 Fc, AA P101-K330
T5 sequence: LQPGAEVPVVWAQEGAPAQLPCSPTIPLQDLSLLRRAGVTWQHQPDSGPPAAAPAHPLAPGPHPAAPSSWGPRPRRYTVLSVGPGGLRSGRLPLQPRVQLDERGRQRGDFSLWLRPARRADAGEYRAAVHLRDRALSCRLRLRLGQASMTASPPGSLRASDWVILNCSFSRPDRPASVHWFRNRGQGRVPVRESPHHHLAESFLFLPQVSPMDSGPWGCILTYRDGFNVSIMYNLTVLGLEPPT

[6] = biological target: T6, human LAG-3 domain 1-2 Fc fusion, point mutation #2 Q41A (human, UniProt P18627 23-266)
T6 construct: not shown: human IgG1 Fc, AA P101-K330
T6 sequence: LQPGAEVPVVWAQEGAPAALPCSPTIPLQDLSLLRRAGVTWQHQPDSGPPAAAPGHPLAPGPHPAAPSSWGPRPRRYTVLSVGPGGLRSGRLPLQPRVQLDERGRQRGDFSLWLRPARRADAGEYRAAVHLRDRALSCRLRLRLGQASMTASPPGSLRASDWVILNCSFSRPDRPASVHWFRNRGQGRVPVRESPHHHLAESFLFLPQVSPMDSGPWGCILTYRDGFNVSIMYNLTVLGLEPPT

[7] = biological target: T7, human LAG-3 domain 1-2 Fc fusion, point mutation #76 D143A (human, UniProt P18627 23-266)
T7 construct: not shown: human IgG1 Fc, AA P101-K330
T7 sequence: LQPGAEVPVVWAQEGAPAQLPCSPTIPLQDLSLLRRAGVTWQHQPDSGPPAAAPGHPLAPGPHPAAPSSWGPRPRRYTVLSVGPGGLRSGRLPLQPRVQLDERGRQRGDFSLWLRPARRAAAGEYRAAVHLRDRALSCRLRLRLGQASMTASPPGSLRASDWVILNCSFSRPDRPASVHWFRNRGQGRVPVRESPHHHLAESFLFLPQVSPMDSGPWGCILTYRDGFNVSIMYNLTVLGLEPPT

[8] = biological target: T8, human LAG-3 domain 1-2 Fc fusion, point mutation #3 P43A (human, UniProt P18627 23-266)
T8 construct: not shown: human IgG1 Fc, AA P101-K330
T8 sequence: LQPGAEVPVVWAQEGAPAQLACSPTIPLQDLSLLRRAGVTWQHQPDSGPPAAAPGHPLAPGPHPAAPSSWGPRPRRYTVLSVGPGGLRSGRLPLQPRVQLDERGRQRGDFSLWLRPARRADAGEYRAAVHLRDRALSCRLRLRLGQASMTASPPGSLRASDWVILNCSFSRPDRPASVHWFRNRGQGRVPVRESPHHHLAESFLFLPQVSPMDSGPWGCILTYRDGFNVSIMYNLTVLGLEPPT

[9] = biological target: T9, human LAG-3 domain 1-2 Fc fusion, point mutation #20 A73S (human, UniProt P18627 23-266)
T9 construct: not shown: human IgG1 Fc, AA P101-K330
T9 sequence: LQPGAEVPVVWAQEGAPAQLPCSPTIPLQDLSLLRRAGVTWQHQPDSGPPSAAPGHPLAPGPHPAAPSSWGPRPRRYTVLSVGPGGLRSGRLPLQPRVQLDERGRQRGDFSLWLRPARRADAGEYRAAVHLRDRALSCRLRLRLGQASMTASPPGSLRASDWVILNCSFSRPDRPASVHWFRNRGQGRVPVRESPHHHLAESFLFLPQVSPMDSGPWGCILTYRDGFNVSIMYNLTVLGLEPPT

| Binder | KD mutant/KD wild type [1] [fold] | KD mutant/KD wild type [2] [fold] | KD mutant/KD wild type [3] [fold] | KD mutant/KD wild type [4] [fold] | KD mutant/KD wild type [5] [fold] | KD mutant/KD wild type [6] [fold] | KD mutant/KD wild type [7] [fold] | KD mutant/KD wild type [8] [fold] | KD mutant/KD wild type [9] [fold] | binding result [1] | binding result [2] | binding result [6] | binding result [7] | binding result [8] |
| --- | --- | --- | --- | --- | --- | --- | --- | --- | --- | --- | --- | --- | --- | --- |
| B1 | 3.6 | 4.4 | 1.1 | 7.1 | 1 | 3.4 | 3.8 | 3.8 | 0.7 |  |  |  |  |  |
| B2 |  |  | 0.6 | 11.6 | 0.7 |  |  |  | 0.6 | no binding (tested: 300 nM) | no binding (tested: 300 nM) | no binding (tested: 300 nM) | no binding (tested: 300 nM) | no binding (tested: 300 nM) |
| B3 | 0.6 | 0.6 | 0.7 | 1 | 0.8 | 0.7 | 0.5 | 0.6 | 0.7 |  |  |  |  |  |
| B4 |  |  | 0.8 | 0.8 | 0.7 |  |  |  | 0.6 | no binding (tested: 300 nM) | no binding (tested: 300 nM) | no binding (tested: 300 nM) | no binding (tested: 300 nM) | no binding (tested: 300 nM) |

From US20220363757A1 (SYMPHOGEN A S, published 2022)
